Results as given in the supplement of paper PMC9112550, “Optimization of the antimicrobial peptide Bac7 by deep mutational scanning” (BMC Biology, 2022).

The sequences below were run on Escherichia coli TOP10 (assay: shrunken log2 fold change of peptide-encoding DNA abundance (4.5 h post-induction vs induction); higher = less antimicrobial activity (less host growth inhibition)). Conditions: time post-induction: 4.5 h; library: site-saturation at positions 5, 18, 19, 20.
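Note: peptides expressed intracellularly from a pBAD plasmid library in pooled LB shake-flask culture, induced with 0.3% L-arabinose, DNA abundance read by NGS, three biological replicates, DESeq2 with apeglm shrinkage.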

Sequence | shrunken log2 fold change
RRIRTRPPRLPRPRPRPSKPPRP | -0.487
RRIRQRPPRLPRPRPRPLNYPRP | -0.548
RRIRIRPPRLPRPRPRPLTVPRP | -0.114
RRIRNRPPRLPRPRPRPPCCPRP | 0.123
RRIRARPPRLPRPRPRPCTRPRP | -0.00176
RRIRRRPPRLPRPRPRPYKIPRP | -0.158
RRIRVRPPRLPRPRPRPCYDPRP | 0.0557
RRIRMRPPRLPRPRPRPACSPRP | 0.551
RRIRLRPPRLPRPRPRPHPAPRP | 0.12
RRIRCRPPRLPRPRPRPIHQPRP | -0.304
RRIRLRPPRLPRPRPRPVVAPRP | 0.0705
RRIRYRPPRLPRPRPRPKYMPRP | -0.998
RRIRYRPPRLPRPRPRPWIGPRP | -0.314
RRIRMRPPRLPRPRPRPPIMPRP | 0.0866
RRIRTRPPRLPRPRPRPDWQPRP | -0.0206
RRIRCRPPRLPRPRPRPIHDPRP | -0.264
RRIRCRPPRLPRPRPRPIMKPRP | -0.649
RRIRPRPPRLPRPRPRPPCSPRP | -0.232
RRIRSRPPRLPRPRPRPPMKPRP | 0.194
RRIRPRPPRLPRPRPRPHPFPRP | -0.115
RRIRKRPPRLPRPRPRPWATPRP | 0.546
RRIRVRPPRLPRPRPRPGWEPRP | 0.123
RRIRLRPPRLPRPRPRPDPLPRP | 0.172
RRIRTRPPRLPRPRPRPFMLPRP | -0.706
RRIRNRPPRLPRPRPRPCRAPRP | -0.0439

Sequence | shrunken log2 fold change
RRIRSRPPRLPRPRPRPPIRPRP | 0.129
RRIRMRPPRLPRPRPRPTCFPRP | 0.105
RRIRMRPPRLPRPRPRPSIEPRP | 0.0914
RRIRIRPPRLPRPRPRPEKVPRP | -0.13
RRIRKRPPRLPRPRPRPNLYPRP | -0.111
RRIRMRPPRLPRPRPRPNMPPRP | -0.286
RRIRQRPPRLPRPRPRPQANPRP | -0.165
RRIRARPPRLPRPRPRPHPCPRP | 0.206
RRIRIRPPRLPRPRPRPIWGPRP | -0.0934
RRIRVRPPRLPRPRPRPEREPRP | 0.586
RRIRIRPPRLPRPRPRPYLAPRP | -0.941
RRIRMRPPRLPRPRPRPSRLPRP | 0.19
RRIRLRPPRLPRPRPRPMFFPRP | -0.381
RRIRGRPPRLPRPRPRPWAGPRP | 0.188
RRIRCRPPRLPRPRPRPTDPPRP | 0.102
RRIRMRPPRLPRPRPRPSIVPRP | -0.106
RRIRWRPPRLPRPRPRPKQRPRP | 0.473
RRIRSRPPRLPRPRPRPIDPPRP | 0.017
RRIRCRPPRLPRPRPRPSCFPRP | -0.205
RRIRDRPPRLPRPRPRPRFEPRP | 0.0618
RRIRIRPPRLPRPRPRPCVAPRP | -0.288
RRIRERPPRLPRPRPRPCYGPRP | -0.274
RRIRRRPPRLPRPRPRPHPMPRP | 0.144
RRIRKRPPRLPRPRPRPFELPRP | -0.000946
RRIRNRPPRLPRPRPRPSHEPRP | 0.00187

Sequence | shrunken log2 fold change
RRIRARPPRLPRPRPRPTPDPRP | 0.848
RRIRCRPPRLPRPRPRPLYCPRP | -0.593
RRIRWRPPRLPRPRPRPYQFPRP | -0.00205
RRIRFRPPRLPRPRPRPTRWPRP | 0.117
RRIRWRPPRLPRPRPRPKNGPRP | -0.156
RRIRLRPPRLPRPRPRPSQQPRP | -0.0225
RRIRGRPPRLPRPRPRPQGDPRP | 0.824
RRIRPRPPRLPRPRPRPQQVPRP | 0.14
RRIRQRPPRLPRPRPRPQRLPRP | -0.0136
RRIRLRPPRLPRPRPRPYNMPRP | -0.859
RRIRHRPPRLPRPRPRPMRSPRP | -0.00134
RRIRERPPRLPRPRPRPDAVPRP | -0.0146
RRIRERPPRLPRPRPRPGFFPRP | -0.191
RRIRNRPPRLPRPRPRPWRAPRP | 0.0962
RRIRCRPPRLPRPRPRPMCEPRP | -0.0476
RRIRARPPRLPRPRPRPNYDPRP | -0.36
RRIRVRPPRLPRPRPRPHRDPRP | -0.198
RRIRSRPPRLPRPRPRPTRPPRP | 0.645
RRIRPRPPRLPRPRPRPDPFPRP | -0.0897
RRIRMRPPRLPRPRPRPSFFPRP | 0.0666
RRIRNRPPRLPRPRPRPNGTPRP | -0.167
RRIRWRPPRLPRPRPRPHLWPRP | 0.191
RRIRYRPPRLPRPRPRPHRMPRP | -1.51
RRIRCRPPRLPRPRPRPGVCPRP | 0.117
RRIRCRPPRLPRPRPRPPIPPRP | 0.31

Sequence | shrunken log2 fold change
RRIRIRPPRLPRPRPRPTSDPRP | -0.245
RRIRQRPPRLPRPRPRPYMNPRP | -0.155
RRIRERPPRLPRPRPRPWAVPRP | -0.0984
RRIRYRPPRLPRPRPRPIVIPRP | -0.0448
RRIRHRPPRLPRPRPRPNWVPRP | -0.126
RRIRQRPPRLPRPRPRPTDIPRP | -0.0659
RRIRYRPPRLPRPRPRPSWTPRP | -1.11
RRIRHRPPRLPRPRPRPWDGPRP | -0.0969
RRIRLRPPRLPRPRPRPHATPRP | -0.0435
RRIRVRPPRLPRPRPRPQYAPRP | -0.193
RRIRGRPPRLPRPRPRPFYLPRP | -0.0695
RRIRQRPPRLPRPRPRPDVIPRP | -0.011
RRIRERPPRLPRPRPRPDQSPRP | -0.336
RRIRCRPPRLPRPRPRPTAGPRP | 0.411
RRIRTRPPRLPRPRPRPVVQPRP | -0.062
RRIRVRPPRLPRPRPRPRCHPRP | 0.115
RRIRGRPPRLPRPRPRPFLKPRP | 0.186
RRIRWRPPRLPRPRPRPNLQPRP | 0.0402
RRIRCRPPRLPRPRPRPPAAPRP | 1.78
RRIRARPPRLPRPRPRPSMRPRP | 1.03
RRIRPRPPRLPRPRPRPGTRPRP | 0.134
RRIRDRPPRLPRPRPRPGYVPRP | -0.153
RRIRTRPPRLPRPRPRPANGPRP | -0.213
RRIRYRPPRLPRPRPRPQMWPRP | -0.213
RRIRHRPPRLPRPRPRPDIFPRP | -0.223

Sequence | shrunken log2 fold change
RRIRCRPPRLPRPRPRPQCDPRP | -0.264
RRIRMRPPRLPRPRPRPTCKPRP | 2.25
RRIRGRPPRLPRPRPRPETQPRP | 2.49
RRIRMRPPRLPRPRPRPPPTPRP | 1.97
RRIRRRPPRLPRPRPRPHYYPRP | -0.0297
RRIRARPPRLPRPRPRPCPPPRP | 0.156
RRIRWRPPRLPRPRPRPHYRPRP | 0.0266
RRIRIRPPRLPRPRPRPLVAPRP | -0.0566
RRIRARPPRLPRPRPRPFDLPRP | 0.0229
RRIRLRPPRLPRPRPRPKFNPRP | -0.437
RRIRSRPPRLPRPRPRPSWEPRP | 0.0729
RRIRPRPPRLPRPRPRPWKHPRP | -0.19
RRIRRRPPRLPRPRPRPTFLPRP | 0.115
RRIRKRPPRLPRPRPRPGSIPRP | 0.00442
RRIRARPPRLPRPRPRPWKVPRP | -0.279
RRIRTRPPRLPRPRPRPIEDPRP | 0.0177
RRIRSRPPRLPRPRPRPGIGPRP | 1.62
RRIRIRPPRLPRPRPRPKKSPRP | -0.202
RRIRGRPPRLPRPRPRPCHPPRP | -0.119
RRIRDRPPRLPRPRPRPLEDPRP | -0.00783
RRIRHRPPRLPRPRPRPVAEPRP | 0.232
RRIRTRPPRLPRPRPRPNSGPRP | 0.00712
RRIRWRPPRLPRPRPRPHHSPRP | -0.667
RRIRKRPPRLPRPRPRPTSFPRP | -0.044
RRIRYRPPRLPRPRPRPFRFPRP | -0.83
